According to patent US10654917B2, “Antibody molecules and peptide delivery systems for use in alzheimer's disease and related disorders” (TECHNOPHAGE, INVESTIGAÇĀO E DESENVOLVIMENTO EM …, priority 2015, dated 2020):

How the values were obtained:
oligomeric form of BAP42 = molecular target: T1, oligomeric form of BAP42 (Homo sapiens, UniProt P05067); experiment: BIAcore binding profile to BAP42 oligomers
T1 construct: “beta-amyloid peptide 42”, or “beta-amyloid peptide 1-42”; oligomerised in house (1 mg/mL, stirring 16 h at 37 °C, retained on 5 kDa filter)
Excerpt: Anti-oligomer sdAbs where characterized further regarding their relative binding profile to BAP42 oligomers by BIAcore.
Results are showing in FIGS. 16A-16D, respectively (kinetic studies) and Tables 14-16, respectively (biodistribution studies), presented below.

[1] = CAT-fusion assay: chloramphenicol resistance as measure of sdAb stability; format: cell-based, E. coli
Excerpt: Clones were further selected for stability using a modified CAT-fusion assay, as previously described (see, e.g., WO 2008/136694 to Goncalves et al). Specifically, the CAT gene was amplified from pCAT (Stratagene) by PCR and inserted into pET-derived plasmid using EcoRI and SphI restriction sites to create the pE-CAT. The 5′PCR primer originally used to clone the variable domains was also designed to contain two sequential and different SfiI cloning sites, and an amber codon (TAG) just before the beginning of the CAT gene.
To clone single-domain antibody libraries fused into the CAT gene, SDVL fragments were generated by PCR from phagemid vectors selected by panning. The resulting SDVL PCR fragments were gel-purified, digested with the restriction endonuclease SfiI, and cloned independently into the appropriately SfiI-cut vector pE-CAT. The pSDVL-CAT constructs were under the control of the strong Lac promoter that also included an N-terminal His6 affinity tag and the ampicillin resistance gene. Alternatively, SDVL fragments may be cloned into readily available vectors designed to express cloned sequences as fusion proteins with CAT, e.g., the PCFN1 vector (see Maxwell, et al (1999) J Prot Sci 8:1908-1911, incorporated by reference in its entirety).
Chloramphenicol resistance assays were performed by transforming ER2783 cells (New England Biolabs, Inc) with each single domain CAT-fusion library. The transformation mixtures were inoculated into 5 mL of SOC and incubated at 37° C. for 1 hour. Next, 10 mL of SB medium with 3 μL of 100 mg/ml ampicillin was added to each library. A total of 15 mL of each culture was shaken for 1 hour at 37° C. Subsequently, 4.5 μL of 100 mg/ml ampicillin was added and cultures shaken for one hour at 37° C. Then 85 mL of SB medium with 85 μL of 100 mg/ml ampicillin was added and cultures grown overnight at 37° C. The following day, 600 μL of each culture was used to inoculate 20 mL of SB medium containing 100 μg/mL of ampicillin.
Expression of CAT-fusion single domain proteins was induced by addition of 0.5 mM IPTG when the optical density of cultures reached 0.9 (at […]). After 2 hours of incubation at 37° C., 100 μL aliquots of each library were plated on agar plates with IPTG (200 μg/mL) and various concentrations of chloramphenicol. Plates were incubated at 37° C. for 16-20 hours. The level of resistance was quantified as the highest level of chloramphenicol at which colonies appeared after the 37° C. incubation period. […] Results are shown in Table 6, below, where +++ indicates over 600 colonies detected; ++ indicates 400-600 colonies detected; + indicates 1-399 colonies detected; and − indicates no colonies detected at the corresponding chloramphenicol concentration. “sdAb2”, “sdAb6”, “sdAb20”, and “sdAb26” are sdAb candidates that bind BAP42 oligomers.

[2] = design: species or system CD1 mice; settings: mouse, in vivo
Experimental: The different antibody-peptide constructs were used in biodistribution assays, and results compared with the biodistribution of the respective DEN2C peptides (pepH1, pepH2, pepH3, and pepM′, chemically synthesized). […] After expression and purification, the sdAbs and sdAb-peptide constructs were conjugated to technetium (^99Tc) and a biodistribution assay was performed, as previously described.
Tables 14-16 show the biodistribution of different anti-BAP42 sdAbs and constructs thereof with different peptides (“pepH3”).

[3] = 10^0, [chloramphenicol] 0.03 mM
[4] = 10^0, [chloramphenicol] 0.06 mM
[5] = 10^0, [chloramphenicol] 0.25 mM
[6] = 10^0, [chloramphenicol] 0.31 mM
[7] = 10^0, [chloramphenicol] 0.62 mM
[8] = 10^0, [chloramphenicol] 1.24 mM
[9] = 10^0, [chloramphenicol] 1.86 mM
[10] = 10^0, [chloramphenicol] 2.48 mM
[11] = 10^−2, [chloramphenicol] 0.03 mM
[12] = 10^−2, [chloramphenicol] 0.06 mM
[13] = 10^−2, [chloramphenicol] 0.25 mM
[14] = 10^−2, [chloramphenicol] 0.31 mM
[15] = 10^−2, [chloramphenicol] 0.62 mM
[16] = 10^−2, [chloramphenicol] 1.24 mM
[17] = 10^−2, [chloramphenicol] 1.86 mM
[18] = 10^−2, [chloramphenicol] 2.48 mM

T1 sequence (P05067 672-713 limits assumed): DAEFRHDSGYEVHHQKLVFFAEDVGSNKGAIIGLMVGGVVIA

Molecule | binding profile to the oligomeric form of BAP42 (oligomeric form of BAP42) | colonies detected (CAT-fusion chloramphenicol resistance) [1, 3] | colonies detected (CAT-fusion chloramphenicol resistance) [1, 4] | colonies detected (CAT-fusion chloramphenicol resistance) [1, 5] | colonies detected (CAT-fusion chloramphenicol resistance) [1, 6] | colonies detected (CAT-fusion chloramphenicol resistance) [1, 7] | colonies detected (CAT-fusion chloramphenicol resistance) [1, 8] | colonies detected (CAT-fusion chloramphenicol resistance) [1, 9] | colonies detected (CAT-fusion chloramphenicol resistance) [1, 10] | colonies detected (CAT-fusion chloramphenicol resistance) [1, 11] | colonies detected (CAT-fusion chloramphenicol resistance) [1, 12] | colonies detected (CAT-fusion chloramphenicol resistance) [1, 13] | colonies detected (CAT-fusion chloramphenicol resistance) [1, 14] | colonies detected (CAT-fusion chloramphenicol resistance) [1, 15] | colonies detected (CAT-fusion chloramphenicol resistance) [1, 16] | colonies detected (CAT-fusion chloramphenicol resistance) [1, 17] | colonies detected (CAT-fusion chloramphenicol resistance) [1, 18] | factor by which washout from the brain is slowed on linking to delivery peptide pepH3 [2] | factor of increase of presence in the brain on linking to delivery peptide pepH3 [2]
#26: anti-BAP42 sdAb, SEQ ID NO: 18 (antibody, V domains shown) VL: ELDLTQTPSPVSAAVGGTVTISCQSSESVYSNNRLAWYQQKPGQPPKLLIYLASSLASGVPSRFKGSGSGTQFTLTIRDLECDDAATYYCLGYRSGSDGDAFGGGTELEIL | best binding profiles | +++ (+++ indicates over 600 colonies detected) | +++ (+++ indicates over 600 colonies detected) | +++ (+++ indicates over 600 colonies detected) | +++ (+++ indicates over 600 colonies detected) | +++ (+++ indicates over 600 colonies detected) | +++ (+++ indicates over 600 colonies detected) | +++ (+++ indicates over 600 colonies detected) | ++ (++ indicates 400-600 colonies detected) | +++ (+++ indicates over 600 colonies detected) | +++ (+++ indicates over 600 colonies detected) | +++ (+++ indicates over 600 colonies detected) | +++ (+++ indicates over 600 colonies detected) | +++ (+++ indicates over 600 colonies detected) | +++ (+++ indicates over 600 colonies detected) | − (− indicates no colonies detected) | − (− indicates no colonies detected) |  | 
#2: anti-BAP42 sdAb, SEQ ID NO: 1 (antibody, V domains shown) VL: ELVMTQTPSPVSAAVGGTVSISCQSSKSVYNNNWLSWFQQKPGQPPKLLIYSASTLASGVSSRFKGSGSGTQFTLTISDVQCDDAATYYCQGEFDCSGDCNVFGGGTELEIL | best binding profiles | +++ (+++ indicates over 600 colonies detected) | +++ (+++ indicates over 600 colonies detected) | +++ (+++ indicates over 600 colonies detected) | +++ (+++ indicates over 600 colonies detected) | +++ (+++ indicates over 600 colonies detected) | +++ (+++ indicates over 600 colonies detected) | +++ (+++ indicates over 600 colonies detected) | ++ (++ indicates 400-600 colonies detected) | +++ (+++ indicates over 600 colonies detected) | +++ (+++ indicates over 600 colonies detected) | +++ (+++ indicates over 600 colonies detected) | +++ (+++ indicates over 600 colonies detected) | +++ (+++ indicates over 600 colonies detected) | +++ (+++ indicates over 600 colonies detected) | − (− indicates no colonies detected) | − (− indicates no colonies detected) | about 2 | about 3
#20: anti-BAP42 sdAb, SEQ ID NO: 2 (protein, /note=“Description of Unknown rabbit immunoglobulin VL domain polypeptide”; /note=“#20”) VHH: ELDLTQTPSSKSVPVGDTVTINCQASESVYSNNRLAWFQQKPGQPPKLLIYYASTLASGVPSRFKGSGSGTQFTLTISDVVCDDAATYYCAGYKSSTSDGIAFGGGTEVVVK | best binding profiles | +++ (+++ indicates over 600 colonies detected) | +++ (+++ indicates over 600 colonies detected) | +++ (+++ indicates over 600 colonies detected) | +++ (+++ indicates over 600 colonies detected) | +++ (+++ indicates over 600 colonies detected) | +++ (+++ indicates over 600 colonies detected) | +++ (+++ indicates over 600 colonies detected) | ++ (++ indicates 400-600 colonies detected) | +++ (+++ indicates over 600 colonies detected) | +++ (+++ indicates over 600 colonies detected) | +++ (+++ indicates over 600 colonies detected) | +++ (+++ indicates over 600 colonies detected) | +++ (+++ indicates over 600 colonies detected) | +++ (+++ indicates over 600 colonies detected) | − (− indicates no colonies detected) | − (− indicates no colonies detected) |  | 
